Results on three molecules are retold here after patent US20240010747A1, “ANTI-MRP4 (ENCODED BY ABCC4 GENE) ANTIBODIES AND USES THEREOF” (Kenjockety Biotechnology, Inc., priority 2020, published 2024).

For assay [1], the system named is cynomolgus ABCC4. Put plainly: Flow cytometry (FACS) binding to C6 cells stably transfected to express cynomolgus ABCC4 (different experiment, different C6.cC4 cell line, Table 4). Also noted: key to Cynomolgus ABCC4 binding: Negative (−)=Rmax (MFI) below background level; Positive (+)=MFI>3× background level. The conditions noted are these: for Cynomolgus ABCC4 binding: different C6.cC4 cell line, C6 cells stably transfected to express cynomolgus ABCC4, FACS, Table 4. A digest of the protocol:
(§1)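 Murine C6 cells stably expressing FLAG-tagged human or cynomolgus ABCC4 incubated 30 min on ice with antibodies, either 5 ug/mL or serially diluted from 100 ug/mL, in PBS+2% FBS+0.02% azide. Detection with PE anti-human IgG F(ab′)2 by flow cytometry; EC50 at half-maximal MFI; negative below background, positive >3× background.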
(In general: A flow cytometer gives signals particle by particle.)

Assay [2] deals with T1, human ABCC4 (human, UniProt O15439 1-1325).
T1 construct: Expressed on murine C6 cells stably transfected with human ABCC4 cDNA with C-terminal FLAG tag; also called MRP4; Multidrug resistance protein 4; not shown: C-terminal fused FLAG tag
T1 sequence: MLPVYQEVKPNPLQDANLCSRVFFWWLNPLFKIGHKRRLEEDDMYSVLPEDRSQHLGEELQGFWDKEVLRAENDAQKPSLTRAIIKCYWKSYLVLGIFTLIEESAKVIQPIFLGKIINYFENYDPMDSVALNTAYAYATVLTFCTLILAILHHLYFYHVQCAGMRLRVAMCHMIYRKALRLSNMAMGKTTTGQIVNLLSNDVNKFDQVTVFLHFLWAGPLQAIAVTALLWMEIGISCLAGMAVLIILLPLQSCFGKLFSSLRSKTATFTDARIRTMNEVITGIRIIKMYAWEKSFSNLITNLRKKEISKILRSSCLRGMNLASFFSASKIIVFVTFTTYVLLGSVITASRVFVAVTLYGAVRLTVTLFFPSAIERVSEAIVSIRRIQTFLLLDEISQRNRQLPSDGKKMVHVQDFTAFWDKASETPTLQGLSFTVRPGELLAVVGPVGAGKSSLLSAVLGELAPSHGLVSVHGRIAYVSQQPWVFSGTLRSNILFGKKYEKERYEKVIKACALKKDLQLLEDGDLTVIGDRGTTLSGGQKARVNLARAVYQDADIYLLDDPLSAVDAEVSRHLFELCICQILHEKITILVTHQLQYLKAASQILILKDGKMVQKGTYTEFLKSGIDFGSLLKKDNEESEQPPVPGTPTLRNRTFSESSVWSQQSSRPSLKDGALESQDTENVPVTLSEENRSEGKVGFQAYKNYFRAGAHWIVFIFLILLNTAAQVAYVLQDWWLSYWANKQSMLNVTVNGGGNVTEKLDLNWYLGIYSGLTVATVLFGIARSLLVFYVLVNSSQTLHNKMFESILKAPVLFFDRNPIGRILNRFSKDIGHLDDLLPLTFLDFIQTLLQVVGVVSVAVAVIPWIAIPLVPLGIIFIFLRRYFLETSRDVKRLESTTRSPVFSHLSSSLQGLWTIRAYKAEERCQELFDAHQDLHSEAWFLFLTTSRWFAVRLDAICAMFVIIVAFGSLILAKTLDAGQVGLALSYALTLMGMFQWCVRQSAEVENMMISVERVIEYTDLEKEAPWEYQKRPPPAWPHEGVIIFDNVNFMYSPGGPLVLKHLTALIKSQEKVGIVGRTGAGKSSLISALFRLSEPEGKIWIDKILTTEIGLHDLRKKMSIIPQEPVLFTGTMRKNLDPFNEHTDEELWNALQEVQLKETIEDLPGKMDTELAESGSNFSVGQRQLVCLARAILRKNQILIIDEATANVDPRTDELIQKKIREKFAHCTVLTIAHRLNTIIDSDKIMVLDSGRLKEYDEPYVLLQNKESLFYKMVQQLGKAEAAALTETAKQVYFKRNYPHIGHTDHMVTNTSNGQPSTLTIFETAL
The assay is described as follows: FACS, C6 cells stably expressing human ABCC4; + = MFI>3x background. The protocol:
(§2) Antibody binding to cells was evaluated by flow cytometry. Murine C6 cells stably transfected to express human or cynomolgus ABCC4 were washed once in flow cytometry buffer (PBS+2% FBS+0.02% sodium azide), resuspended at 2×10\hat{ }6 cells/mL in flow cytometry buffer, and dispensed into 96-well microtiter plates at 0.1 mL/well. Recombinant antibodies were added to cells at 5 ug/mL for initial binding confirmation, or serially diluted from 100 ug/mL in flow cytometry buffer. After incubating cells on ice for 30 min, cells were washed twice with flow cytometry buffer. Bound antibody was detected with PE-labeled F(ab′)₂ fragment goat anti-human IgG (Jackson ImmunoResearch) and evaluated on an Attune N×T flow cytometer. EC50 is calculated to be the concentration of antibody that gives half maximal response.

The target of assay [3] is T2, human ABCC4 (Homo sapiens, UniProt O15439).
T2 construct: expressed in transfected cells
T2 sequence (O15439 1-1325): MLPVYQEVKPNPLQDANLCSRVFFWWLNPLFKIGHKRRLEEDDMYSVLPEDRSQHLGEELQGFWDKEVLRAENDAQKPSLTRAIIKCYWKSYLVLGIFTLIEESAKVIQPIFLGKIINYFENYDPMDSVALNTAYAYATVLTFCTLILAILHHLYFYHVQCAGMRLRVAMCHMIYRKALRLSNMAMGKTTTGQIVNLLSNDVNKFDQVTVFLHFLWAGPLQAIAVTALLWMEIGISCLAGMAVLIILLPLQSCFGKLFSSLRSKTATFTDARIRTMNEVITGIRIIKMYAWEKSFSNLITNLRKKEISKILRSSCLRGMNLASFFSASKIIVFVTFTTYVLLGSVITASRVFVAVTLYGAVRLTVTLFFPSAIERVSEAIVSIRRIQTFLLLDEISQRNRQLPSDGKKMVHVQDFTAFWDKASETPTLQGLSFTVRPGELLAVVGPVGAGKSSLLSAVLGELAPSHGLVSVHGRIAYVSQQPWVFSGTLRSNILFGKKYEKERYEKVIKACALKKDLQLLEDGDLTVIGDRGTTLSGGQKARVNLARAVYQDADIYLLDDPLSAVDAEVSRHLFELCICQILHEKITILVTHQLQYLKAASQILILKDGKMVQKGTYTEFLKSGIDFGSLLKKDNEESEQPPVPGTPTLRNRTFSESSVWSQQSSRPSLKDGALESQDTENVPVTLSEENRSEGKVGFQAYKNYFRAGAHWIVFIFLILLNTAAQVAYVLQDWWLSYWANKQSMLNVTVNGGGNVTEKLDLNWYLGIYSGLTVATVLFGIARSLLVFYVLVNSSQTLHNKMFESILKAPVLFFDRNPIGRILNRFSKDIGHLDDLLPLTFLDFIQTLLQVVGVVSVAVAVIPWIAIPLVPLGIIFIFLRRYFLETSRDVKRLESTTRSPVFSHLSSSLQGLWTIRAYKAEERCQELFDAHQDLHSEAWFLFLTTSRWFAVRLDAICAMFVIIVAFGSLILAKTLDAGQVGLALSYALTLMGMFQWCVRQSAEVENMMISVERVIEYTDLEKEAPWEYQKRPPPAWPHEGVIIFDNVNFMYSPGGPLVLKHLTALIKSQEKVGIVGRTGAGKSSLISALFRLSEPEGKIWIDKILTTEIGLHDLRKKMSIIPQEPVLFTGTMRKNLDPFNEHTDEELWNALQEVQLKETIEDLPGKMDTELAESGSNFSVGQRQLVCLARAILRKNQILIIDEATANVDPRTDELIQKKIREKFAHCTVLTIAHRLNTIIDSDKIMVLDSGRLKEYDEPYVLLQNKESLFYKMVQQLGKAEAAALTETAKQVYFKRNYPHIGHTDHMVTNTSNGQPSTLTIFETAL
The assay is described as follows: Flow cytometry (FACS) binding to C6 cells stably transfected to express human ABCC4 (different experiment, Table 4). The conditions noted are these: for Human ABCC4 binding: C6 cells stably transfected to express human ABCC4, FACS, different experiment, Table 4. In a few lines:
as §1

Assay [4] relates to cynomolgus ABCC4. The assay is described as follows: Flow cytometry (FACS) binding to C6 cells stably transfected to express cynomolgus ABCC4 (Table 3 study). The conditions noted are these: C6 cells stably transfected to express cynomolgus ABCC4, FACS; Table 3. Also noted: key to Cynomolgus ABCC4 binding: Negative (−) is defined as maximum response (Rmax(MFI)) below background level; Positive (+) is defined as MFI>1000. The protocol: (§3) Binding titration of recombinant antibodies to ABCC4 transfectants was performed by serial dilution of antibodies from about 666 nM. Diluted antibody in flow cytometry buffer was incubated with cells on ice for 30 min. After 2 washes with flow cytometry buffer, bound antibody was detected with PE-labeled F(ab′)2 fragment goat anti-human IgG (Jackson ImmunoResearch) diluted 1:200 in flow cytometry buffer and incubated with cells for 20 min on ice. After 2 washes with flow cytometry buffer fluorescence was measured on an Attune N×T flow cytometer. Data were analyzed with GraphPad Prism 8.0 software to determine EC50's.
(§4) Human embryonic kidney HEK 293T cells and murine C6 (ATCC CCL-107) were transfected with human or cynomolgus ABCC4 cDNA with C-terminal fused FLAG tag in a pMONO-hygro vector with Lipofectamine 3000 (Invitrogen #L3000001). The cells were treated with 0.2 mg/ml and 0.5 mg/ml hygromycin respectively for about 2 weeks while cultivated in DMEM and 10% FBS with 0.2 mg/ml hygromycin and 0.5 mg/ml hygromycin, respectively. The cells were washed with PBS, and stained with […] of anti-FLAG-PE after fixing and permeablization. Clones expressing ABCC4 were single-cell sorted into 200 μl DMEM with 10% FBS using a BD Aria FACS machine and cultivated in 96 well plates using standard techniques in an incubator at 37° C. and 5% CO 2. Two weeks later clones expressing high levels of ABCC4 were screened and amplified.
as §2, with “2×10^6” for “2×10\hat{ }6”, “F(ab′)2” for “F(ab′)₂”
(§5) Table 3 lists the following characteristics of the rat anti-ABCC4 antibodies tested: binding to C6 cells stably transfected to express human ABCC4 measured by FACS and binding to C6 cells stably transfected to express cynomolgus ABCC4 measured by FACS. Negative (−) is defined as maximum response (Rmax(MFI)) below background level. Positive (+) is defined as MFI>1000.

In assay [5] the target is T2, human ABCC4. Put plainly: Flow cytometry (FACS) binding to C6 cells stably transfected to express human ABCC4 (Table 3 study). The conditions noted are these: C6 cells stably transfected to express human ABCC4, FACS; Table 3. As for the experimental part: as §3, §4
as §2, with “2×10^6” for “2×10\hat{ }6”, “F(ab′)2” for “F(ab′)₂”
as §5

B1: C4.1134 (antibody, V domains shown)
VH: EVQLVESDGGLVQPGRSLKLSCAASGFTFSDFYMAWVRQAPTKGLEWIATISHDGRNTFYRDSVKGRFTISRDNAKRALYLQMDSLRSEDTATYYCASLTTRYKGVMEAWGQGASVTVSS
VL: DVVMTQSPSHLAASPGESVSINCKASKNIYKYLAWYQQKPGKTNKLLIYSGSTLQSGTPSRFSGSGSGSDFTLTIRNLEPEDFGLYYCQHHNEYPPTFGGGTKLEIK
For B1, the “binding to cynomolgus ABCC4 expressed on cell surface” value in the assay with cynomolgus ABCC4 [1] (Table 4 study, stated in words) was “bind to both human and cynomolgus ABCC4”. Besides, the “Cynomolgus ABCC4 binding” value in the assay on cynomolgus ABCC4 [1] is on record as “+ (Positive (+)=MFI>3× background level)”. Also, the binding result with human ABCC4 [2] is reported as “binds”. Also, in the assay with human ABCC4 [3], the “Human ABCC4 binding” value is “+ (Positive (+)=MFI>3× background level)”. Besides, the “binding to human ABCC4 expressed on cell surface” value with human ABCC4 [3] (Table 4 study, stated in words) is “bind to both human and cynomolgus ABCC4”.

B2: C4.947: anti-ABCC4 antibody raised in rats; VH SEQ ID NO: 5, VL SEQ ID NO: 128 (antibody, V domains shown)
VH: EVKLVESGGGLVQPGGSMRLSCAASGFTFTDFYMNWIRQPAGKAPEWLGFIRNKANAYTTAYNPSVKGRFTISRDNAQNMLYLQMNTLRAEDTATYYCARSNYGFDYWGQGVMVTVSS
VL: DVAMTQTPPSLSVAIGQSVSISCKSSQSLVYSDGKTYLHWLLQSSGRSPKRLIYQVSNLDSGVPDRFSGTGSQKDFTLKISRVEAKDLGVYYCAQTTHFPFTFGSGTKLEIK
B2: the “Cynomolgus ABCC4 binding” value in the assay with cynomolgus ABCC4 [1] and in the assay with cynomolgus ABCC4 [4] was “−” in each case. The entries for the “Human ABCC4 binding” value with human ABCC4 [5] and in the assay with human ABCC4 [3] were “+ (Positive (+) is defined as MFI>1000)” and “+ (Positive (+)=MFI>3× background level)”, respectively.

B3: C4.884: anti-ABCC4 antibody raised in rats; VH SEQ ID NO: 1, VL SEQ ID NO: 124 (antibody, V domains shown)
VH: EVQLVESGPGLVQPSQTLSLTCTVSGFSLTSNSVHWVRQPPGKGLEWIGAIWSGGSTDYNSALKSRLSISRDTSKSQVFLKMNSLQTEDTAIYFCTGLIFPYWGQGASVTVSS
VL: DVVMTQTPSILSGTLGRSVSISCRSSQSLLDSDGTTYLYWFLQRPGQSPQRLIYLVSNLGSGVPNRFSGSGSGTDFTLKISGVEAEDLGVYYCMQATHVPFTFGSGTKLEIK
For B3, the “Cynomolgus ABCC4 binding” value in the assay with cynomolgus ABCC4 [1] and in the assay on cynomolgus ABCC4 [4] was “−” throughout. For the same molecule, the “Human ABCC4 binding” value with human ABCC4 [5] is on record as “+ (Positive (+) is defined as MFI>1000)”; in the assay with human ABCC4 [3] it was “+ (Positive (+)=MFI>3× background level)”.
